In article PMC9335323, “Single crystal spectroscopy and multiple structures from one crystal (MSOX) define catalysis in copper nitrite reductases” (Proceedings of the National Academy of Sciences of the …, 2022):

Key:
[1] = target: T1, Br2DNiR (Bradyrhizobium sp. ORS 375, UniProt H0SLX7); assay: X-ray crystal structure (MSOX, nitrite-soaked crystal, DS1 […] Å); type: binding; details: 200 mM NaNO2 soak, pH 5.5, 100 K; side-on at type-2 Cu, full occupancy
T1 construct: gene nirK; two-domain enzyme, recombinant in E. coli with 6xHis tag cleaved by TEV; Cu-loaded T1 and T2 sites; CuNiR homotrimer, site at interface of two monomers
T1 sequence (H0SLX7 25-364): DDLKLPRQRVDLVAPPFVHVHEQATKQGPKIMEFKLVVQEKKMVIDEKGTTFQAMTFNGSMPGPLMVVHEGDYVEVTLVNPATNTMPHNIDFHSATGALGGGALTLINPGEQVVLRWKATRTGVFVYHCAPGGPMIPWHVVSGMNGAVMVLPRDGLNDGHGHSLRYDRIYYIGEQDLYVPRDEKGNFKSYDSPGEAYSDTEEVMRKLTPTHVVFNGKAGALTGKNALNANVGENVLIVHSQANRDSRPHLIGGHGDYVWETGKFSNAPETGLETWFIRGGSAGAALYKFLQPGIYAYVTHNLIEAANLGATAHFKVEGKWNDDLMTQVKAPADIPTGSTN

[2] = test system: O=NO; assay: purified protein; details: conditions in supplement only

In the case of O=NO [nitrite], the “X-ray crystal structure (MSOX, nitrite-soaked crystal, DS1 1.19 Å)” value [1] is reported as “full occupancy nitrite is seen bound to fully occupied T2Cu in a “side-on” orientation”.

Br2DNiR (Bradyrhizobium sp. ORS 375) showed a Km [2] of 7.4 ± 1.2 µM and a kcat [2] of 9 ± 0.5 s⁻¹.
